Results: IntAct's records for PubMed 24553140

B1: Autophagy-related protein 16-1 (Mus musculus), Q8C0J2 (parent)
chain: MSSGLRAADFPRWKRHIAEELRRRDRLQRQAFEEIILQYTKLLEKSDLHSVLTQKLQAEKHDMPNRHEISPGHDGAWNDSQLQEMAQLRIKHQEELTELHKKRGELAQLVIDLNNQMQQKDKEIQMNEAKISEYLQTISDLETNCLDLRTKLQDLEVANQTLKDEYDALQITFTALEEKLRKTTEENQELVTRWMAEKAQEANRLNAENEKDSRRRQARLQKELAEAAKEPLPVEQDDDIEVIVDETSDHTEETSPVRAVSRAATKRLSQPAGGLLDSITNIFGRRSVSSIPVPQDIMDTHPASGKDVRVPTTASYVFDAHDGEVNAVQFSPGSRLLATGGMDRRVKLWEAFGDKCEFKGSLSGSNAGITSIEFDSAGAYLLAASNDFASRIWTVDDYRLRHTLTGHSGKVLSAKFLLDNARIVSGSHDRTLKLWDLRSKVCIKTVFAGSSCNDIVCTEQCVMSGHFDKKIRFWDIRSESVVREMELLGKITALDLNPERTELLSCSRDDLLKVIDLRTNAVKQTFSAPGFKCGSDWTRVVFSPDGSYVAAGSAEGSLYVWSVLTGKVEKVLSKQHSSSINAVAWAPSGLHVVSVDKGSRAVLWAQP

Variants of: B1
Settings: with mlp3a_mouse Map1lc3a

effect of a mutation on the interaction | Variant
decreasing interaction | T300A
